Data published in patent US8816055 (DYAX, dated 2014).
Substitutions are numbered along the chain they refer to. Values belong to the binder of their own block, whether it stands above or below them.

Experiments:
[1] = target: pKal catalytic domain Mutant 4 (human, UniProt P03952 391-638); test: Ki,app, enzyme inhibition
[2] = target: T1, pKal catalytic domain Mutant 2 (human, UniProt P03952 391-638, limits assumed); test: Ki,app, enzyme inhibition
T1 construct: catalytic domain with His tag from Pichia pastoris

[3] = target: T2, pKal catalytic domain Mutant 1 (human, UniProt P03952 391-638, limits assumed); test: Ki,app, enzyme inhibition
T2 construct: catalytic domain with His tag from Pichia pastoris

[4] = target: T3, human plasma kallikrein (active form) (human, UniProt P03952 20-390; P03952 391-638); test: ELISA, biotinylated pKal / streptavidin background
T3 construct: two disulfide linked chains; biotinylated in the ELISA; also called pKal; hpKal
Description: Abbreviations used: "T/B" is the ELISA signal obtained using of the "target" (biotinylated plasma kallikrein) divided by the ELISA signal of the "background" (streptavidin); both of which were coated on microtiter plates. "nd" is not determined. The symbol "q" refers to the amber suppressible stop codon (TAG), which is translated as glutamine (Q) in strains of E. coli such as the TG1 cells that were used to express the Fab fragments.

Sequence of pKal catalytic domain Mutant 4 (P03952 other isoform, or with tags, fused parts or gaps mutant): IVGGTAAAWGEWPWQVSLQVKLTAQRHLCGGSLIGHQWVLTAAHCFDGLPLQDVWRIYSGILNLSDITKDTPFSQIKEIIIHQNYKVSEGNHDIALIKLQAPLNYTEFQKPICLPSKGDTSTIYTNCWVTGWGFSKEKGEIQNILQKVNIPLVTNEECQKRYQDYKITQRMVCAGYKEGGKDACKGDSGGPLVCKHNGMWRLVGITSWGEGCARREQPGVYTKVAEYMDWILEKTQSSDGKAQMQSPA
T2 sequence (P03952 other isoform, or with tags, fused parts or gaps mutant limits assumed): as the sequence (P03952 other isoform, or with tags, fused parts or gaps mutant) above, with A6N, A7S, A8S, S88A, N91A, S135A, K136A counted along it
T1 sequence (P03952 other isoform, or with tags, fused parts or gaps mutant limits assumed): as the sequence (P03952 other isoform, or with tags, fused parts or gaps mutant) above, with A6N, A7S, A8S, R161A, Q163A, Y165A, T168A, R170A counted along it
T3 sequence (P03952 20-390, chain 1 of 2): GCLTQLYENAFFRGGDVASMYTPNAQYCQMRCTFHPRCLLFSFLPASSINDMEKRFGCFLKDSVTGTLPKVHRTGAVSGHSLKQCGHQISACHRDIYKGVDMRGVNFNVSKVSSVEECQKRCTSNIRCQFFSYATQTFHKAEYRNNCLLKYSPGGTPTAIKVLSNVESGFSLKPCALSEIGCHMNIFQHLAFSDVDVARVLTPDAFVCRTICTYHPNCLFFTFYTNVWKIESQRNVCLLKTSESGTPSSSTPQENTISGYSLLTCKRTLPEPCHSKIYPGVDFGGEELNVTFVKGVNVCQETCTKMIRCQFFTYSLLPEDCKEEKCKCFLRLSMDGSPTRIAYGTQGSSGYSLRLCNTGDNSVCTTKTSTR
T3 sequence (P03952 391-638, chain 2 of 2): as the sequence (P03952 other isoform, or with tags, fused parts or gaps mutant) above, with A6N, A7S, A8S counted along it

B1: X115-F02 (Fab, V domains shown)
VH: EVQLLESGGGLVQPGGSLRLSCAASGFTFSHYIMMWVRQAPGKGLEWVSGIYSSGGITVYADSVKGRFTISRDNSKNTLYLQMNSLRAEDTAVYYCAYRRIGVPRRDEFDIWGQGTMVTVSS
VL: DIQMTQSPSTLSASVGDRVTITCRASQSISSWLAWYQQKPGKAPKLLIYKASTLESGVPSRFSGSGSGTEFTLTISSLQPDDFATYYCQQYNTYWTFGQGTKVEIK
notes: also called 559A-X115-F02; 559A-X0115-F02
Ki [1]: 100 pM | Ki [2]: 5900 pM | Ki [3]: 140 pM

B3: X115-A03 (antibody, V domains shown)
VH: B1 VH with Y98W, E108S, I111M
VL: B1 VL
notes: also called 559A-X115-A03; 559A-X0115-A03
Ki [1]: 130 pM | Ki [2]: 3700 pM | Ki [3]: 230 pM

B5: X101-A01 (antibody, V domains shown)
VH: EVQLLESGGGLVQPGGSLRLSCAASGFTFSHYLMTWVRQAPGKGLEWVSYISPSGGHTIYADSVKGRFTISRDNSKNTLYLQMNSLRAEDTAVYYCARVARGIAARSRTSYFDYWGQGTLVTVSS
VL: EIVLTQSPGTLSLSPGERATLSCRTSQFVNSNYLAWYQQKPGQAPRLLIYGASSRATGIPDRFSGSGSGTDFTLTISRLEPEDFAVYYCQQSSRTPWTFGQGTKVEIK
notes: also called 559A-X0101-A01
Ki [1]: 250 pM | Ki [2]: 20000 pM | Ki [3]: 14000 pM

B8: M35-G04 (Fab, V domains shown)
VH: EVQLLESGGGLVQPGGSLRLSCAASGFTFSYYHMSWVRQAPGKGLEWVSVISPSGGSTKYADSVKGRFTISRDNSKNTLYLQMNSLRAEDTAVYYCARGGSSDYAWGSYRRPYYFDYWGQGTLVTVSS
VL: DIQMTQSPATLSLSPGERATLSCRASQSVSSYLAWYQQKPGQAPRLLIYDASNRATGIPARFSGSGSGTDFTLTISSLEPEDFAVYYCQQRSNWPRGFTFGPGTKVDIK
notes: also called 559A-M35-G04; 559A-M0035-G04
Ki [1]: 800 pM | Ki [2]: 1100 pM | Ki [3]: 90 pM

B9: M29-D09 (Fab, V domains shown)
VH: EVQLLESGGGLVQPGGSLRLSCAASGFTFSWYTMVWVRQAPGKGLEWVSYIYPSGGATFYADSVKGRFTISRDNSKNTLYLQMNSLRAEDTAVYYCAMGSYDYIWGFYSDHWGQGTLVTVSS
VL: QSALTQPPTVSVSPGQTARITCSGNKLGDKYVAWYQQKPGQSPMLVIYQDTKRPSRVSERFSGSNSANTATLSISGTQALDEADYYCQAWDSSIVIFGGGTRLTVL
notes: also called 559A-M29-D09 (sFab); 559A-M0029-D09
Ki [1]: 390 pM | Ki [2]: 340 pM | Ki [3]: 270 pM

B11: M28-D02 (Fab, V domains shown)
VH: EVQLLESGGGLVQPGGSLRLSCAASGFTFSWYPMQWVRQAPGKGLEWVSYIYPSGGGTDYADSVKGRFTISRDNSKNTLYLQMNSLRAEDTATYYCATSSGWLGDAFDIWGQGTMVTVSS
VL: DIQMTQSPSSLSASEGDMVTITCRTSRRIGTYLNWYQQKPGKAPKLLIYGASSLQSGVPSRFSGSGSGTDFTLTVSSLQPEDVGTYYCQQSFSSPWTFGPGTKVEIK
ELISA (T/B) [4]: 3.7 T/B

More lines, now with the values ahead:

Ki [1]: 300 pM | Ki [2]: 2200 pM | Ki [3]: 400 pM
B2: X115-G04 (antibody, V domains shown)
VH: B1 VH with I101T
VL: B1 VL
notes: also called 559A-X115-G04; 559A-X0115-G04

Ki [1]: 120 pM | Ki [2]: 2500 pM | Ki [3]: 260 pM
B4: X115-D01 (antibody, V domains shown)
VH: EVQLLESGGGLVQPGGSLRLSCAASGFTFSIYSMHWVRQAPGKGLEWVSSIYPSRGMTWYADSVKGRFTISRDNSKNTLYLQMNSLRAEDTAVYYCAYRRTGIPRRDAFDIWGQGTMVTVSS
VL: B1 VL
notes: also called 559A-X115-D01; 559A-X0115-D01

Ki [1]: 140 pM | Ki [2]: 47000 pM | Ki [3]: 4700 pM
B6: X115-B07 (antibody, V domains shown)
VH: B5 VH with R98M, A100G, R101Q, A104R, A105G, D113A, Y114Q
VL: B5 VL
notes: also called 559A-X115-B07; 559A-X0115-B07

Ki [1]: 210 pM | Ki [2]: 100 pM | Ki [3]: 230 pM
B7: M145-D11 (Fab, V domains shown)
VH: EVQLLESGGGLVQPGGSLRLSCAASGFTFSHYRMSWVRQAPGKGLEWVSSIYPSGGRTVYADSVKGRFTISRDNSKNTLYLQMNSLRAEDTAVYYCAKDKFEWRLLFRGIGNDAFDIWGQGTMVTVSS
VL: QSVLTQPPSVSVSPGQTASITCSGDKLGDKYTSWYQQRPGQSPVLVIYQDIKRPSGIPERFSGSNSGNTATLTISGTQAMDEADYYCQAWDSPNARVFGSGTKVTVL
notes: also called 559A-M145-D11 (sFab); 559A-M0145-D11

Ki [1]: 2900 pM | Ki [2]: 13500 pM | Ki [3]: 3400 pM
B10: M6-D09 (Fab, V domains shown)
VH: EVQLLESGGGLVQPGGSLRLSCAASGFTFSFYYMVWVRQAPGKGLEWVSVIYPSGGITVYADSVKGRFTISRDNSKNTLYLQMNSLRAEDTAVYYCARDKWAVMPPYYYYAMDVWGQGTTVTVSS
VL: DIQMTQSPSSLSASVGDRVTITCRASQSIRNYLNWYQQKPGKAPNLLIYAASTLQSGVPARFSGSGSGTDFTLTISSLQPEDFATYYCQQLSGYPHTFGQGTKLEIK
notes: also called M06-D09; 559A-M06-D09
